Reference: patent US20140141456

Assays:
[1] = biological target: C-terminally c-myc tagged rIGFBP-5 (human IGFBP-5 with myc epitope and His6, expressed in mammalian cells), P24593
[2] = biological target: rIGFBP-3 (gift of D. Powell), P17936
[3] = biological target: rIGFBP-5 (gift of D. Andress), P24593
rIGFBP-5 (gift of D. Andress), P24593, sequence (P24593 21-272): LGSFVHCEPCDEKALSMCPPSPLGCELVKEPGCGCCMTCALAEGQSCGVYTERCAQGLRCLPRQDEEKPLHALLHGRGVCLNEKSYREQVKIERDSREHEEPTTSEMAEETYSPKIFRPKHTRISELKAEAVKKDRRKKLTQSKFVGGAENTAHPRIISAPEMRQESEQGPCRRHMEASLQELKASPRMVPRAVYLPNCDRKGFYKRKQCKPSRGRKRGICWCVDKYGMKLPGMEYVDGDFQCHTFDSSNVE

rIGFBP-3 (gift of D. Powell), P17936, sequence (P17936 28-291): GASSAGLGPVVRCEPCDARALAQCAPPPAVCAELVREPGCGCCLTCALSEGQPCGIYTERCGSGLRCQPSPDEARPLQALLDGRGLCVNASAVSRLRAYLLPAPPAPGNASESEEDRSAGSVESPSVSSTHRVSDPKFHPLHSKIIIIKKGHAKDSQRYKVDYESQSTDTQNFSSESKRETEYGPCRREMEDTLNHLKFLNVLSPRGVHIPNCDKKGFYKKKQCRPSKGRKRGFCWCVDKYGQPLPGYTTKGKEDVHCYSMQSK
C-terminally c-myc tagged rIGFBP-5 (human IGFBP-5 with myc epitope and His6, expressed in mammalian cells), P24593, sequence (P24593 other isoform, or with tags, fused parts or gaps): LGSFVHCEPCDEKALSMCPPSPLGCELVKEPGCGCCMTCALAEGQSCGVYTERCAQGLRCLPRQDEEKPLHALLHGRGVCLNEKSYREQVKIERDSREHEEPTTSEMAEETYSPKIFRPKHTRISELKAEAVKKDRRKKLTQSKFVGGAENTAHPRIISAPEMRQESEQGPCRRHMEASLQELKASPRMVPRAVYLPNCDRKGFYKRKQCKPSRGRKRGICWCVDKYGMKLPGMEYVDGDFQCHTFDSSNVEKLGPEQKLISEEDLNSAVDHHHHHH

B1: PAPP-A2 (recombinant, in medium from 293T cells transfected with cDNA encoding PAPP-A2, pPA2; also purified PAPP-A2) (protein)
chain: SPPEESNQNGGEGSYREAETFNSQVGLPILYFSGRRERLLLRPEVLAEIPREAFTVEAWVKPEGGQNNPAIIAGVFDNCSHTVSDKGWALGIRSGKDKGKRDARFFFSLCTDRVKKATILISHSRYQPGTWTHVAATYDGRHMALYVDGTQVASSLDQSGPLNSPFMASCRSLLLGGDSSEDGHYFRGHLGTLVFWSTALPQSHFQHSSQHSSGEEEATDLVLTASFEPVNTEWVPFRDEKYPRLEVLQGFEPEPEILSPLQPPLCGQTVCDNVELISQYNGYWPLRGEKVIRYQVVNICDDEGLNPIVSEEQIRLQHEALNEAFSRYNISWQLSVHQVHNSTLRHRVVLVNCEPSKIGNDHCDPECEHPLTGYDGGDCRLQGRCYSWNRRDGLCHVECNNMLNDFDDGDCCDPQVADVRKTCFDPDSPKRAYMSVKELKEALQLNSTHFLNIYFASSVREDLAGAATWPWDKDAVTHLGGIVLSPAYYGMPGHTDTMIHEVGHVLGLYHVFKGVSERESCNDPCKETVPSMETGDLCADTAPTPKSELCREPEPTSDTCGFTRFPGAPFTNYMSYTDDNCTDNFTPNQVARMHCYLDLVYQQWTESRKPTPIPIPPMVIGQTNKSLTIHWLPPISGVVYDRASGSLCGACTEDGTFRQYVHTASSRRVCDSSGYWTPEEAVGPPDVDQPCEPSLQAWSPEVHLYHMNMTVPCPTEGCSLELLFQHPVQADTLTLWVTSFFMESSQVLFDTEILLENKESVHLGPLDTFCDIPLTIKLHVDGKVSGVKVYTFDERIEIDAALLTSQPHSPLCSGCRPVRYQVLRDPPFASGLPVVVTHSHRKFTDVEVTPGQMYQYQVLAEAGGELGEASPPLNHIHGAPYCGDGKVSERLGEECDDGDLVSGDGCSKVCELEEGFNCVGEPSLCYMYEGDGICEPFERKTSIVDCGIYTPKGYLDQWATRAYSSHEDKKKCPVSLVTGEPHSLICTSYHPDLPNHRPLTGWFPCVASENETQDDRSEQPEGSLKKEDEVWLKVCFNRPGEARAIFIFLTTDGLVPGEHQQPTVTLYLTDVRGSNHSLGTYGLSCQHNPLIINVTHHQNVLFHHTTSVLLNFSSPRVGISAVALRTSSRIGLSAPSNCISEDEGQNHQGQSCIHRPCGKQDSCPSLLLDHADVVNCTSIGPGLMKCAITCQRGFALQASSGQYIRPMQKEILLTCSSGHWDQNVSCLPVDCGVPDPSLVNYANFSCSEGTKFLKRCSISCVPPAKLQGLSPWLTCLEDGLWSLPEVYCKLECDAPPIILNANLLLPHCLQDNHDVGTICKYECKPGYYVAESAEGKVRNKLLKIQCLEGGIWEQGSCIPVVCEPPPPVFEGMYECTNGFSLDSQCVLNCNQEREKLPILCTKEGLWTQEFKLCENLQGECPPPPSELNSVEYKCEQGYGIGAVCSPLCVIPPSDPVMLPENITADTLEHWMEPVKVQSIVCTGRRQWHPDPVLVHCIQSCEPFQADGWCDTINNRAYCHYDGGDCCSSTLSSKKVIPFAADCDLDECTCRDPKAEENQ
- Proteolytic activity was assessed by Western blotting using anti-c-myc [1]: In the absence of inhibitors, wild-type PAPP-A2 degraded all rIGFBP-5 (lane 3)
- activity assessed by ligand blotting using radiolabeled IGF-II [2]: IGFBP-3 was partially degraded
- activity assessed by ligand blotting using radiolabeled IGF-II [3]: IGFBP-5 showed complete cleavage
